Biological target: T1, CoV2 Parental S-RBD fused with human Fc (SARS-CoV-2, UniProt P0DTC2)
T1 construct: also called Parental RBD; RBD-Fc
Assay: BLI
Details: both partners purified

B1: shACE2 N53A/N90A/N322A triple glycan deletant (domain or fragment)
chain: STIEEQAKTFLDKFNHEAEDLFYQSSLASWNYNTAITEENVQNMNNAGDKWSAFLKEQSTLAQMYPLQEIQALTVKLQLQALQQNGSSVLSEDKSKRLNTILNTMSTIYSTGKVCNPDNPQECLLLEPGLNEIMANSLDYNERLWAWESWRSEVGKQLRPLYEEYVVLKNEMARANHYEDYGDYWRGDYEVNGVDGYDYSRGQLIEDVEHTFEEIKPLYEHLHAYVRAKLMNAYPSYISPIGCLPAHLLGDMWGRFWTNLYSLTVPFGQKPNIDVTDAMVDQAWDAQRIFKEAEKFFVSVGLPAMTQGFWENSMLTDPGNVQKAVCHPTAWDLGKGDFRILMCTKVTMDDFLTAHHEMGHIQYDMAYAAQPFLLRNGANEGFHEAVGEIMSLSAATPKHLKSIGLLSPDFQEDNETEINFLLKQALTIVGTLPFTYMLEKWRWMVFKGEIPKDQWMKKWWEMKREIVGVVEPVPHDETYCDPASLFHVSNDYSFIRYYTRTLYQFQFQEALCQAAKHEGPLHKCDISNSTEAGQKLFNMLRLGKSEPWTLALENVVGAKNMNVRPLLNYFEPLFTWLKDQNKNSFVGWSTDWSPYADQSIK
notes: also called N53A/N90A/N322A triple deletant; N53A/N90A/N322 triple deletant
B1 gave a Kd of 254 nM.
